Experimental data taken from patent US8754034B2, “Structure-based design of peptide inhibitors of amyloid fibrillation” (The Regents of the University of California, priority 2009, dated 2014).
Entries after “also recorded” stand apart in the source; their conditions may differ. Where no end group is shown, it is not given here. [ ]: non-standard residue; d: D form.

Columns and labels:
tau K12 [1] = target: T1, tau K12 (Homo sapiens, UniProt P10636); test: Fibril formation inhibition assay of tau K12 monitored by ThS fluorescence; format: biochemical; details: for effect on K12 fibrillation, comparison between peptides: ThS fluorescence, ratio not given (FIG. 4); for effect on tau K12 fibrillation (ThS fluorescence): peptide at equimolar ratio with K12; for ratio (concentration) dependence of the delay of K12 fibrillation (lag time): various molar ratios of peptide to K12 (FIGS. 5, 6); for average lag time of K12 fibrillation: peptide at equimolar ratio with K12 (FIG. 10b)
T1 construct: starting Met residue (added initiator methionine before Q244) (N); made in house; host or cells: E. coli BL21 (DE3), vector pNG2 (pET-3b derivative)
Description: 150 μL reactions containing 50 or 100 μM tau K12, as determined by the micro BCA Protein Assay Kit (Pierce), were incubated in 250 mM sodium phosphate buffer pH 7.4 with 1 mM DTT, 3 μM heparin, and 10 μM ThS (Friedhoff et al., 1998; Perez et al., 1996; Schweers et al., 1995). Peptides were dissolved in 250 mM sodium phosphate buffer pH 7.4 and added at various molar ratios to the reaction mixtures. The fluorescence signal was measured every 15 minutes with excitation and emission wavelengths of 440 and 510 nm, respectively, at 37° C. with continuous shaking at 900 rpm with a diameter of 1 mm in a Varioskan plate reader (Thermo Fisher Scientific, Inc.). Reactions were split into a minimum of 3 replicates in Nunc optically clear bottom, 96-well black plates, sealed with Corning pressure seal tape and monitored for various times. Each experiment was repeated a minimum of four times yielding the same results.

amyloid β protein = amyloid β protein (Homo sapiens, UniProt P05067); test: Amyloid beta fibrillation monitored by thioflavin T fluorescence; format: biochemical; details: thioflavin T fluorescence (FIG. 4b)
Text: In FIG. 4(b), fibril formation of amyloid beta (abeta) protein is not delayed by addition of D-TLKIVW. Tau K12 fibrillation is monitored by ThS fluorescence and amyloid beta fibrillation is monitored by thioflavin T fluorescence.

tau K12 [2] = target: T1, tau K12; test: Electron microscopy of tau K12 fibril formation in the presence of peptides; format: biochemical; details: K12 incubated with peptide, with or without ThS
Description: 5 μL of sample were applied to glow discharged 400 mesh carbon-coated formar films on copper grids (Ted Pella, Inc.) for three minutes. Grids were rinsed twice with distilled water and stained with 1% uranyl acetate for 90 seconds. Grids were examined in a Hitachi H-7000 transmission electron microscope at 75 kEv.

tau K12 construct = tau K12 construct (UniProt P10636-8 244-274; P10636-8 306-394, limits assumed); test: cell-based or functional assay
Sequence of tau K12 construct (P10636 other isoform, or with tags, fused parts or gaps limits assumed): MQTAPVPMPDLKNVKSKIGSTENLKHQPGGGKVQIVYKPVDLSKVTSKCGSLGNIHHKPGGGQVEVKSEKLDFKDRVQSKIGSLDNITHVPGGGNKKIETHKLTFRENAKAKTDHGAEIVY

T1 sequence (P10636 186-305 isoform P10636-2): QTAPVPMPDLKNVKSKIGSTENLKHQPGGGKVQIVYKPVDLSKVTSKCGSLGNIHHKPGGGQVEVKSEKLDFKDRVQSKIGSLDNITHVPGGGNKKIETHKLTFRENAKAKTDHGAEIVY
Sequence of amyloid β protein (P05067 672-713 limits assumed): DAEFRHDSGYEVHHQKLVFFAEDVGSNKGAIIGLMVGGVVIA

D-DYYFEF ([dD][dY][dY][dF][dE][dF]) [D-amino acid peptide designed to pack against the bottom of the VQIVYK atomic structure]
effect on K12 fibrillation, comparison between peptides (tau K12 [1]): improved capping over D-DYYFEK
effect on tau K12 fibrillation (ThS fluorescence) (tau K12 [1]): no inhibition
ratio (concentration) dependence of the delay of K12 fibrillation (lag time) (tau K12 [1]): delayed K12 fibrillation in a concentration dependent manner; also recorded: some effect at delaying fibrillation

D-DYYFEK ([dD][dY][dY][dF][dE][dK])
effect on tau K12 fibrillation (ThS fluorescence) (tau K12 [1]): all peptides except D-DYYFEK systematically delayed fibrillation

D-GVIGIA (G[dV][dI]G[dI][dA]) [D-amino acid control peptide, a stereoisomer of an L-amino acid peptide known to aggregate on its own, reference compound]
effect on tau K12 fibrillation (ThS fluorescence) (tau K12 [1]): no effect on fibrillation; also recorded: without any effect on fibrillation

D-LKTWIV ([dL][dK][dT][dW][dI][dV]) [scrambled peptide of D-TLKIVW, reference compound]
effect on K12 fibrillation, comparison between peptides (tau K12 [1]): does not delay the onset of K12 fibrillation

D-TIKWVL ([dT][dI][dK][dW][dV][dL]) [scrambled peptide of D-TLKIVW, order of residues scrambled in one face]
effect on K12 fibrillation, comparison between peptides (tau K12 [1]): does not delay the onset of K12 fibrillation
effect on tau K12 fibrillation (ThS fluorescence) (tau K12 [1]): some inhibitory effect; also recorded: not nearly as effective as D-TLKIVW

D-TIWKVL ([dT][dI][dW][dK][dV][dL]) [scrambled peptide of D-TLKIVW, reference compound]
effect on K12 fibrillation, comparison between peptides (tau K12 [1]): does not delay the onset of K12 fibrillation

D-TLKIVW ([dT][dL][dK][dI][dV][dW]) [D-amino acid peptide designed to pack against the top of the VQIVYK fibril-like structure of tau]
molar ratio of peptide relative to tau K12 at which a marginal effect on delay of fibrillation was observed (tau K12 [1]): 50 fold less peptide relative to tau K12 concentration
time without ThS signal (tau K12 [1]; 50 μM K12, peptide at 2-fold and 5-fold excess, some of the samples): > 300 h
time without fibril formation (tau K12 [1]; 2-fold or 5-fold excess peptide, some experiment replicates): more than 2 weeks
effect on K12 fibrillation, comparison between peptides (tau K12 [1]): the most effective peptide; also recorded: delays fibrillation relative to K12 alone
effect on tau K12 fibrillation (ThS fluorescence) (tau K12 [1]): inhibition for several days
average lag time of K12 fibrillation (tau K12 [1]): over 140 hours
effect on tau K12 fibrillation (ThS fluorescence) (tau K12 [1]; listed as D-amino acid peptide TLKIVW): prevents the formation of K12fibrils
ratio (concentration) dependence of the delay of K12 fibrillation (lag time) (tau K12 [1]): delayed longer by higher concentrations of the D-peptide
effect on fibril formation of amyloid beta protein (amyloid β protein): no effect on fibrillation; also recorded: not delayed
fibril formation of K12 seen by electron microscopy (tau K12 [2]): there were no fibrils; also recorded: prevents fibril formation; also recorded: fibrils do not form

D-TWKLVL ([dT][dW][dK][dL][dV][dL]) [D-amino acid peptide designed to pack against the top of the VQIVYK fibril structure]
molar ratio of peptide relative to tau K12 at which a marginal effect on delay of fibrillation was observed (tau K12 [1]): 10 fold less peptide relative to tau K12 concentration
duration of effective inhibition of K12 fibrillation (tau K12 [1]; 5-fold excess peptide): about 1 week
peptide concentration relative to K12 at which an inhibitory effect is still seen (tau K12 [1]; ThS fluorescence (FIGS. 5, 6)): 10 % the molar concentration of K12
delay of K12 fibrillation (tau K12 [1]; peptide at equimolar ratio with K12 (FIG. 3a)): more than 30 hours
ratio (concentration) dependence of the delay of K12 fibrillation (lag time) (tau K12 [1]): still were inhibiting fibrillation of K12
fibril formation of K12 seen by electron microscopy (tau K12 [2]): Fibrils do not form
fibril formation of K12 seen by electron microscopy (tau K12 [2]; listed as DTWKLVL): there were no fibrils

D-YVIIER ([dY][dV][dI][dI][dE][dR]) [D-amino acid peptide designed to pack against the bottom of the VQIVYK fibril structure]
effect on tau K12 fibrillation (ThS fluorescence) (tau K12 [1]): some delay
ratio (concentration) dependence of the delay of K12 fibrillation (lag time) (tau K12 [1]): delayed K12 fibrillation in a concentration dependent manner; also recorded: clear ratio dependence

L-TLKIVW (SEQ ID NO: 3) [L-amino acid enantiomer of D-TLKIVW]
effect on K12 fibrillation, comparison between peptides (tau K12 [1]): able to inhibit fibril formation, but not nearly as long as D-TLKIVW
effect on tau K12 fibrillation (ThS fluorescence) (tau K12 [1]): able to inhibit fibril formation, but not nearly as long as D-TLKIVW; also recorded: not nearly as effective as D-TLKIVW
average lag time of K12 fibrillation (tau K12 [1]): about 40 hours

L-VQIVYK (SEQ ID NO: 1) [steric zipper segment of tau, used as control peptide, reference compound]
effect on tau K12 fibrillation (ThS fluorescence) (tau K12 [1]): no significant effect on fibrillation
effect on tau K12 fibrillation (ThS fluorescence) (tau K12 [1]; listed as VQIVYK): no effect at equimolar concentrations or in excess

[dT][dI][dK][dW][dV][dL] [D-TIKWVL]
average lag time of K12 fibrillation (ThS fluorescence), equimolar ratio (tau K12 construct): 54 h

[dT][dW][dK][dL][dV][dL] (designed binder) [D-TWKLVL]
delay of K12 fibrillation at equimolar ratio (ThS fluorescence) (tau K12 construct): > 30 h
duration of inhibition of K12 fibrillation at 5-fold excess peptide (tau K12 construct): ~1 week
molar amount of peptide relative to tau K12 construct to delay fibrillation (tau K12 construct): 10 fold less peptide than K12

[dT][dL][dK][dI][dV][dW] (designed binder) [D-TLKIVW]
average lag time of K12 fibrillation (ThS fluorescence), equimolar ratio (tau K12 construct): > 140 h
molar amount of peptide relative to tau K12 construct to delay fibrillation (tau K12 construct): 50 fold less peptide than K12
time without K12 fibrils at 2-fold or 5-fold excess peptide (tau K12 construct): > 2 weeks
